For the data set, the target named is T1, OsSPL3 (Oryza sativa (indica, Minghui63; stated …, UniProt A2X0Q6 1-469).
T1 sequence: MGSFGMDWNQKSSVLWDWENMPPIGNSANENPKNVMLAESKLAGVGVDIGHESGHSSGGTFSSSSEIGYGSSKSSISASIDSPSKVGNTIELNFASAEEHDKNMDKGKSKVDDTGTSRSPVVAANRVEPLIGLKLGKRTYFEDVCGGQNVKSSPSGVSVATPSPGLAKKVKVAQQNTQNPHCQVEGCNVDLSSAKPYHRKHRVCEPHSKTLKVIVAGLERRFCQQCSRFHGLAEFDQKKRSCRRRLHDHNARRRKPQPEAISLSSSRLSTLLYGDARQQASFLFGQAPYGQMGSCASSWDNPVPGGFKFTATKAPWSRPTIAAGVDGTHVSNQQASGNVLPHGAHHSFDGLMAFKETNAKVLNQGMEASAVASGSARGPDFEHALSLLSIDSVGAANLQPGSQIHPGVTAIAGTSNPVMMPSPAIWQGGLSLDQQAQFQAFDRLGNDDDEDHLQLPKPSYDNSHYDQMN
Nature of the data set: EMSA; EMSA binding buffer (as printed, probably a concentrated stock): 125 mM Tris-HCl pH 8.0, 750 mM NaCl, 25 mM MgCl2, 100 mg/mL BSA, 50% glycerol, 5 mM DTT, 125 ng/uL salmon sperm DNA; 25 C, 20 min; 6% PAGE in 0.5x TG. The conditions noted are these: protein: recombinant; tags: N-terminal 6xHis (pET28A); label: 5' FAM on F strand; blunt. For orientation: A gel shift assay detects complexes by their altered migration in electrophoresis.

Results on 2 molecules are retold here after article PMC10733476, “OsDWARF10, transcriptionally repressed by OsSPL3, regulates the nutritional metabolism of polished rice”.

B1: D10 S1 (dsDNA)
DNA 1: CTCACACATGCTACTGATGATGTACGTACGGACGTTACGTAGCGCGCGGG
DNA 2: CCCGCGCGCTACGTAACGTCCGTACGTACATCATCAGTAGCATGTGTGAG
With B1, the binding result is “binds”.

B2: D10 S2 (dsDNA)
DNA 1: CCACGCCCCACGTAACGTAGCGTACAGTGTACACCTGATTTCGCTCGGTC
DNA 2: GACCGAGCGAAATCAGGTGTACACTGTACGCTACGTTACGTGGGGCGTGG
Turning to B2, the binding result is reported as “binds”.
